Like-named read-outs stand apart in the source and are kept apart here.

Holding throughout (assay): two-hybrid library CCmax;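 note: natural log of median RNA to DNA barcode read ratio; higher means stronger binding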
Experiment [1] addresses T1, 4H2198-AA.
T1 chain: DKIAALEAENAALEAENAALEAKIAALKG
To be noted: mean of both orientations.

The target in experiment [2] is T2, 4H850-AA.
T2 chain: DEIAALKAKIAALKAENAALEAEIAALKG
To be noted: mean of both orientations.

In experiment [3] the target is T3, 4H2620-AA.
T3 chain: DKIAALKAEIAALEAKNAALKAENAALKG
The following applies: mean of both orientations.

The target of experiment [4] is T4, 4H2907-AA.
T4 chain: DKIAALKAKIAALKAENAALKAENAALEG
The following applies: mean of both orientations.

Experiment [5] deals with T5, 4H1594-AA.
T5 chain: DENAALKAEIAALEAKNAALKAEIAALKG
The following applies: mean of both orientations.

The target in experiment [6] is T6, 4H3381-AA.
T6 chain: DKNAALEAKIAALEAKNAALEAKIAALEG
The following applies: mean of both orientations.

Experiment [7] addresses T7, 4H1874-AA.
T7 chain: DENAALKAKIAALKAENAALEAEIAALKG
The following applies: mean of both orientations.

Experiment [8] has as its target T8, 4H94-AA.
T8 chain: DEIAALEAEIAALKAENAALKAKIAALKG
To be noted: mean of both orientations.

In experiment [9] the target is T9, 4H1877-AA.
T9 chain: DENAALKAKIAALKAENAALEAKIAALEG
To be noted: mean of both orientations.

The target in experiment [10] is T10, 4H2109-AA.
T10 chain: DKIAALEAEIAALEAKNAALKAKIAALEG

In experiment [11] the target is T11, 4H2553-AA.
T11 chain: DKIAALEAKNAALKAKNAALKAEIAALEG

Experiment [12] has as its target T12, 4H3395-AA.
T12 chain: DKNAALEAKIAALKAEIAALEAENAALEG
The following applies: mean of both orientations.

Experiment [13] addresses T13, 4H485-AA.
T13 chain: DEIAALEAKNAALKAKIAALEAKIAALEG
To be noted: mean of both orientations.

In experiment [14] the target is T14, 4H32-AA.
T14 chain: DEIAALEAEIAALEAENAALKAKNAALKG
To be noted: mean of both orientations.

Experiment [15] deals with T15, 4H2642-AA.
T15 chain: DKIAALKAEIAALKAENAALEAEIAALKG
The following applies: mean of both orientations.

The target in experiment [16] is T16, 4H342-AA.
T16 chain: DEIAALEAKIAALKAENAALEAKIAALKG
To be noted: mean of both orientations.

For experiment [17], the target named is T17, 4H2944-AA.
T17 chain: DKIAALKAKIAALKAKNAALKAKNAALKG
The following applies: mean of both orientations.

Experiment [18] concerns the target T18, 4H3343-AA.
T18 chain: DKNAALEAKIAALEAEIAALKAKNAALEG
To be noted: mean of both orientations.

Experiment [19] deals with T19, 4H881-AA.
T19 chain: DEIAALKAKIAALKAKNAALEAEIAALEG
The following applies: mean of both orientations.

In experiment [20] the target is T20, 4H2190-AA.
T20 chain: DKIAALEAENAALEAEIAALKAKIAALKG
The following applies: mean of both orientations.

Experiment [21] has as its target T21, 4H317-AA.
T21 chain: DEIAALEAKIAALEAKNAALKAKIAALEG

The target in experiment [22] is T22, 4H2165-AA.
T22 chain: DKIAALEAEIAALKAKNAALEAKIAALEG
To be noted: mean of both orientations.

The target in experiment [23] is T23, 4H2883-AA.
T23 chain: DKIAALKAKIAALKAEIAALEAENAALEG
The following applies: mean of both orientations.

Experiment [24] addresses T24, 4H_BCR.
T24 chain: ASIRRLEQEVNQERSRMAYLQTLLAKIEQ
The following applies: mean of both orientations.

Experiment [25] addresses T25, 4H566-AA.
T25 chain: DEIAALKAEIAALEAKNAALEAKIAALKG
To be noted: mean of both orientations.

For experiment [26], the target named is T26, 4H2617-AA.
T26 chain: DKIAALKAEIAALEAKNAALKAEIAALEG
The following applies: mean of both orientations.

Experiment [27] concerns the target T27, 4H3844-AA.
T27 chain: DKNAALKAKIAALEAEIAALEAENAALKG
To be noted: mean of both orientations.

B1: 4H1142-AA (peptide)
chain: DENAALEAEIAALKAKNAALEAKIAALKG
Take B1: the interaction score in experiment [1] is -1.52; in experiment [2], 0.681; in [3], -1.34; in [4], -1.24; in experiment [5], 0.842; in experiment [6] it was -0.986. In addition, the interaction score in [7] is 0.966; in experiment [8], -1.72; in experiment [9], 1.48; in experiment [10], 0.249; in experiment [11] (mean of both orientations), -1.85; in experiment [12], -1.76. Also, the interaction score was -0.612 in experiment [13] and -1.11 in [14].

B2: 4H1401-AA (peptide)
chain: DENAALEAKIAALKAKNAALKAEIAALEG
Consider B2, for which the interaction score in [15] is 1.3; in [16] it was 2.15; in experiment [17], -1.67; in [1], 1.85; in experiment [3], -1.63; in experiment [18] it was -1.44. The interaction score is -0.879 in experiment [19]; -1.63 in experiment [4]; 1.09 in experiment [20]; -1.49 in experiment [21]; -1.62 in [22]; -1.43 in experiment [23]. For the same molecule, the interaction score in experiment [5] was -0.109; in experiment [24], -1.64; in experiment [7], 1.26; in experiment [25] it was 1.79; in experiment [11] it was -1.65; in experiment [26], -0.502. Moreover, the interaction score in experiment [27] is -0.79; in [14], 0.0762.

B3: 4H1310-AA (peptide)
chain: DENAALEAKIAALEAENAALKAKIAALKG
Consider B3, for which the interaction score in experiment [1] is -0.878; in experiment [2] it was 1.87; in [3], -1.03; in [4], 1.34; in experiment [5] it was 1.18; in [6] it was -1.23. The interaction score in experiment [7] was 2.14; in experiment [8], -0.926; in experiment [9], 1.5; in [10] (mean of both orientations), 0.409; in experiment [11] (mean of both orientations) it was -1.34; in experiment [12], -0.984. Also, the interaction score in [13] was -1.08; in experiment [14], -1.07.

B4: 4H1153-AA (peptide)
chain: DENAALEAENAALEAEIAALEAEIAALEG
On to B4, for which the interaction score in experiment [15] was -1.43; in experiment [16], -1.39; in experiment [17], -0.0983; in experiment [1], -1.56; in [3], -1.41; in experiment [18], -0.81. Further, the interaction score was -1.26 in experiment [19]; -1.67 in experiment [4]; -0.187 in experiment [20]; -1.45 in experiment [21] (mean of both orientations); -1.33 in experiment [22]; -1.14 in experiment [23]. Further, the interaction score is -1.13 in [5]; -1.61 in [7]; -1.5 in experiment [25]; -0.371 in experiment [11] (mean of both orientations); -2.01 in experiment [26]; -0.484 in [27]. The interaction score in experiment [14] is -2.43.

The values above are taken from publication PMC10397247.
